Data set [1] addresses TDP‐43 (UniProt Q13148). The data set is described as follows: condensate sedimentation assay, TDP-43 Western blot. Particulars: reference: unmodified TDP-43 (no CK1δ, no ATP); sites S403,S404,S409,S410.
Data set [2] addresses TDP-43-MBP-His6 Wt (human (hTDP-43)?, UniProt Q13148 1-414). The data set is described as follows: EMSA; 20 mM NaPO4 pH 8, 150 mM NaCl, 1 mM DTT, 5 mM MgCl2, 0.5 mg/ml BSA, 0.1 mg/ml yeast tRNA, 5% glycerol, 1 U/ul RNase inhibitor, 20 min RT; 16 nM Cy5-RNA, 0-1.6 uM protein; 6% native PAGE 0.5x TBE. Particulars: protein: recombinant; tags: C-terminal TEV site-MBP-His6; label: 5' Cy5.

As for “TDP‐43 (from UniProt Q13148) TDP-43 + CK1δ + ATP”, the “other: S/(S+C) ratio (higher = less condensate)” value in data set [1] is reported as “weaker; reference ~0.25”.

Regarding UGUGUGUGUGUGUGUGUGUGUGUG (ssRNA) [(UG)12 RNA], the binding result in data set [2] is listed as “binds”.

For the origin of these results see paper PMC9016352, “Disease‐linked TDP‐43 hyperphosphorylation suppresses TDP‐43 condensation and aggregation”.
